This series concerns the molecule itself. Briefly: BS3 chemical crosslinking, then gel filtration and SDS-PAGE (self-association). The procedure:
A study of the crosslinking using BS3 (Pierce) is carried out on activated SASPase (SEQ ID NO: 6), obtained by acidification and purification by exclusion chromatography (gel filtration) of the recombinant fusion protein GST-SASPase Δ1-84.
1 μg of BS3 in 60 μl of 50 mM phosphate buffer, pH 7, containing 150 mM NaCl, 0.1% TX100 and 5 mM EDTA is added to the activated SASPase (SEQ ID NO: 6) obtained in example III, placed in ice. A control sample free of BS3 is also prepared. After 90 min, 2 μl of 1 M Tris-HCl, pH 8, are introduced into the reaction media in order to stop the reaction. The products obtained are then analyzed by gel filtration and by SDS-PAGE electrophoresis.
A general note: Size exclusion chromatography separates by hydrodynamic size, large species first.

B1: activated SASPase (SEQ ID NO: 6) (enzyme)
chain: ANSMGKGYYLKGKIGKVPVRFLVDSGAQVSVVHPNLWEEVTDGDLDTLQPFENVVKVANGAEMKILGVWDTAVSLGKLKLKAQFLVANASAEEAIIGTDVLQDHNAILDFEHRTCTLKGKKFRLLPVGGSLEDEFDLE
notes: also called 12 kD SASPase
As to B1, the binding result is listed as “binds”.
